Drawing on paper doi:10.1101/2020.01.21.912428, this text covers mean fluorescence intensity in the tubulin-rhodamine channel for one substance.

In assay [1] the target is dTBCE-GFP expressed in Drosophila embryos (Drosophila melanogaster) (UniProt A1Z6J5). Briefly: fluorescence microscopy of beads.
Assay [2] deals with dTBCE^mutCG-GFP expressed in Drosophila embryos (Drosophila melanogaster) (UniProt A1Z6J5). Kind of assay: fluorescence microscopy of beads.

As for “bovine brain tubulin supplemented with 25 % of tubulin-rhodamin (from UniProt Q6B856 1-445) (complex)”, the figures for the mean fluorescence intensity in the tubulin-rhodamine channel in assay [1] and in assay [2] were 25.9 a.u and 4.7 a.u, respectively.
